PMC11040377 (2024)

Molecular target: Tau-biotin monomer (human, UniProt P10636-8 1-441, biotin (Sulfo-NHS-LC-Biotin))

Kd: > 2 µM
B1: Lag3 (lymphocyte-activation gene 3), on transfected SH-SY5Y cells (receptor)
chain: GPGKELPVVWAQEGAPVHLPCSLKSPNLDPNFLRRGGVIWQHQPDSGQPTPIPALDLHQGMPSPRQPAPGRYTVLSVAPGGLRSGRQPLHPHVQLEERGLQRGDFSLWLRPALRTDAGEYHATVRLPNRALSCSLRLRVGQASMIASPSGVLKLSDWVLLNCSFSRPDRPVSVHWFQGQNRVPVYNSPRHFLAETFLLLPQVSPLDSGTWGCVLTYRDGFNVSITYNLKVLGLEPVAPLTVYAAEGSRVELPCHLPPGVGTPSLLIAKWTPPGGGPELPVAGKSGNFTLHLEAVGLAQAGTYTCSIHLQGQQLNATVTLAVITVTPKSFGLPGSRGKLLCEVTPASGKERFVWRPLNNLSRSCPGPVLEIQEARLLAERWQCQLYEGQRLLGATVYAAESSSGAHSARRISGDLKGGHLVLVLILGALSLFLLVAGAFGFHWWRKQLLLRRFSALEHGIQPFPAQRKIEELERELETEMGQEPEPEPEPQLEPEPRQL
